Laboratory results reported in article doi:10.1101/2025.04.16.649061.

Experiments:
Assay in all cases: BLI
[1] = molecular target: Hopsarin D (Hoplocephalus stephensii)
M17 fXa variant (human) = molecular target: M17 fXa variant (human)
[2] = molecular target: fXa L1 loop-swap chimera (human)
[3] = molecular target: fXa L123 loop-swap chimera (human)
[4] = molecular target: fXa L123/EGF2 chimera (M45) (human | Hoplocephalus stephensii)
[5] = molecular target: fXa L2 loop-swap chimera (human)
[6] = molecular target: fXa L23 chimera with the full EGF2 domain swap (human | Hoplocephalus stephensii)
[7] = molecular target: fXa L23 loop-swap chimera (human)
[8] = molecular target: fXa L3 loop-swap chimera (human)
[9] = molecular target: fXa SP chimera (entire HopD SP domain swapped into human fXa) (human | Hoplocephalus stephensii)
[10] = molecular target: fXa variant M13 (7 EGF2 and 6 SP mutations) (human)
[11] = molecular target: fXa variant M7 (7 EGF2 mutations) (human)
[12] = molecular target: wild-type human factor Xa (human)

Substance: B-domainless human fV (from UniProt P12259 29-2224) (natural protein)
- Kd [1]: 18 nM
- Kd (M17 fXa variant (human)): 17 nM
- Kd [2]: 532 nM
- Kd [3]: 608 nM
- Kd [4]: 43 nM
- Kd [5]: 1130 nM
- Kd [6]: 369 nM
- Kd [7]: 1120 nM
- Kd [8]: 905 nM
- Kd [9]: 400 nM
- Kd [10]: 48 nM
- Kd [11]: 78 nM
- Kd [12]: 1380 nM
